Measurements published in PMC12285222.

Molecular target: trypsin-processed Vip3Cb1 toxin (Paenibacillus sp. strain DSC004343)
Assay: cryo-EM structure

## trypsin-processed Vip3Cb1 toxin (complex)
  stoichiometry N: 4
